A word on the IC50: it is the point on the concentration scale where inhibition reaches its midpoint. A low value points to greater potency in that assay.

The results in this text go back to US20220016218A1 (YISSUM RESEARCH DEVELOPMENT COMPANY OF THE HEBREW …, published 2022).

*1 amine or outer side, *2 acyl side, *3 side chain or, on linkers, in order; H or OH if unused. Where a SMILES comes first, the peptide text is derived from it. [ ]: non-standard residue; d: D form. Arg(ω,ω'-(C6H13OCO)2) = CCCCCCOC(=O)N=C(NCCC[C@H](N)C(=O)O)NC(=O)OCCCCCC; X1 = CCCCCCOC(=O)N=C(NCCC[C@@H](N[*:1])C(=O)[*:2])NC(=O)OCCCCCC; dNMeR = CN[C@H](CCCNC(=N)N)C(=O)O; NMeD = CN[C@@H](CC(=O)O)C(=O)O; NMeV = CN[C@H](C(=O)O)C(C)C; NMeA = CN[C@@H](C)C(=O)O; dNMeA = CN[C@H](C)C(=O)O Bounds are passed on as bounds.

The nature of series [1]: shake flask in triplicate (rotator; centrifuged); both phases by HPLC-MS/MS; mebendazole reference. The following applies: PBS pH 7.4, mutually saturated, not stated C, DMSO stock (small aliquot).
For series [2], the target named is T1, human αvβ3-integrin (human, UniProt P06756 31-992; P05106 27-718).
T1 construct: Soluble integrin bought from R&D; also called integrin subtype αvβ3; αvβ3 receptor
T1 sequence (P06756 31-992 limits assumed, chain 1 of 2): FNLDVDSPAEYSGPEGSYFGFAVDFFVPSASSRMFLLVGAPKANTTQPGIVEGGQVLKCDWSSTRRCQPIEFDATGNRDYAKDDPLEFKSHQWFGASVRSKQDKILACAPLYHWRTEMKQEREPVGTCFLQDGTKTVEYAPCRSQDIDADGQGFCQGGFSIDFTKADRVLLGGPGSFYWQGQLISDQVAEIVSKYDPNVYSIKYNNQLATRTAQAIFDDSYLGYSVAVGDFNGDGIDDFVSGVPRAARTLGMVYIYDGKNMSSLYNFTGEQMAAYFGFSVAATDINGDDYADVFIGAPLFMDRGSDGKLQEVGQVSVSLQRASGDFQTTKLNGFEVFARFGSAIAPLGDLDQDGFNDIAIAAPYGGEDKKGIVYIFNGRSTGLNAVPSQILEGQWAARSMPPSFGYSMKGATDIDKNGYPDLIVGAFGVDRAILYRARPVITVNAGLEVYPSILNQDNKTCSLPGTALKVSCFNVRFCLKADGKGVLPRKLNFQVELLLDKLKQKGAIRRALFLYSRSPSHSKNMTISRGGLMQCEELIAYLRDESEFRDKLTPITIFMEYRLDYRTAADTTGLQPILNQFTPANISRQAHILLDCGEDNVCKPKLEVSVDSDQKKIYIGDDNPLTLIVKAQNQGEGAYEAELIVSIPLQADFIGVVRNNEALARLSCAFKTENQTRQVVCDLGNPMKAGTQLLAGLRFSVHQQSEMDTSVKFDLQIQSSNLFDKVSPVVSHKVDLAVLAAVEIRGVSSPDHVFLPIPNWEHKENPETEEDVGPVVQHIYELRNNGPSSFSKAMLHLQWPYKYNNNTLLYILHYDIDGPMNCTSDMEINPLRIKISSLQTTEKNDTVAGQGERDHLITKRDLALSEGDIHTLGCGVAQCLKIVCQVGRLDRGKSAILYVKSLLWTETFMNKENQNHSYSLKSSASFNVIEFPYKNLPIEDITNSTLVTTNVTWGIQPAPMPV
T1 sequence (P05106 27-718 limits assumed, chain 2 of 2): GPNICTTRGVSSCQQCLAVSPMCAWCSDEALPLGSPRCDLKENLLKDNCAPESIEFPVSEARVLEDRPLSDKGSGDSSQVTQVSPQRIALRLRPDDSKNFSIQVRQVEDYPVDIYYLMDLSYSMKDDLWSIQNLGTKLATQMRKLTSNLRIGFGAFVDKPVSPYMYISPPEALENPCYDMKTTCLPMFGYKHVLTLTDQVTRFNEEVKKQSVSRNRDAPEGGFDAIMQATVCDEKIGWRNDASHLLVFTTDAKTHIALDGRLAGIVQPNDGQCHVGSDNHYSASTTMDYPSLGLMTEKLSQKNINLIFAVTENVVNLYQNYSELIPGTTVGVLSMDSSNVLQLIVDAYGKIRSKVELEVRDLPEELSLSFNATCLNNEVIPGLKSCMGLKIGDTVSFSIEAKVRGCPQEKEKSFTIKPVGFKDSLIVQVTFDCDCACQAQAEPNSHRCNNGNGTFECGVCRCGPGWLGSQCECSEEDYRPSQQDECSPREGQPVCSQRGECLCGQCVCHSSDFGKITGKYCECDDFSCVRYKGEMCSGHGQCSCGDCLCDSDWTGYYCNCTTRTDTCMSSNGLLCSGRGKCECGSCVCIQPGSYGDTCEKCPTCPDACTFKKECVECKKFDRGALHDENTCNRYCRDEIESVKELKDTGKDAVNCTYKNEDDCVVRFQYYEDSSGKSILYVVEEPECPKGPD
Description: solid-phase competition assay: soluble human αvβ3 on coated vitronectin.

Series [3] addresses T2, human αvβ6-Integrin (human, UniProt P06756 31-992; P18564 22-707, limits assumed).
T2 construct: Soluble integrin bought from R&D
The experiment in a line: solid-phase competition assay; value given for the internal standard.

Series [4] concerns the target T3, human αvβ8-Integrin (human, UniProt P06756 31-992; P26012 43-684).
T3 construct: Soluble integrin bought from R&D
The series is described as above.

Series [5] addresses T2, human αvβ6-Integrin. Description: solid-phase competition assay: soluble human αvβ6 on coated LAP (TGF-β).
For series [6], the target named is T4, human αvβ5-integrin (human, UniProt P06756 31-992; P18084 24-719, limits assumed).
T4 construct: Soluble integrin bought from Millipore
T4 sequence (P06756 31-992 limits assumed, chain 1 of 2): as the sequence (P06756 31-992 limits assumed, chain 1 of 2) above
T4 sequence (P18084 24-719 limits assumed, chain 2 of 2): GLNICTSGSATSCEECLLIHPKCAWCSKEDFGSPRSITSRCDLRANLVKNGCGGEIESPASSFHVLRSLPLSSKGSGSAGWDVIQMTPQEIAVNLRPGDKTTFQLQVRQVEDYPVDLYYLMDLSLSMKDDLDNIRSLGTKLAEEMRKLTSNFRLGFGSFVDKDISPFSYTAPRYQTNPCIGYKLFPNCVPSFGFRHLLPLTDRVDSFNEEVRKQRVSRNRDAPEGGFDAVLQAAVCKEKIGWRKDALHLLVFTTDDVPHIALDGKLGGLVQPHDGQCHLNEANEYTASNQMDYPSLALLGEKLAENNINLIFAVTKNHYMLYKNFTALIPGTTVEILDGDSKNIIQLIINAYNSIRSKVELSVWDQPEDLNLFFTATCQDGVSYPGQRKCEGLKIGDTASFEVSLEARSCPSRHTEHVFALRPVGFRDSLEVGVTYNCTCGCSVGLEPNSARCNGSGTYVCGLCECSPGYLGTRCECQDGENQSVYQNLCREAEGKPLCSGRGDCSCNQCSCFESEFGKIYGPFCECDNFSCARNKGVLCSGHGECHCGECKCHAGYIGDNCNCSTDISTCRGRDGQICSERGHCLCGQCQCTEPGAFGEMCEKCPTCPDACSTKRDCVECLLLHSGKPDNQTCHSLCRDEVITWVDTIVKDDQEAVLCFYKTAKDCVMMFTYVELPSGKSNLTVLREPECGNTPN
Description: solid-phase competition assay: soluble human αvβ5 on coated vitronectin.

T2 sequence (P06756 31-992 limits assumed, chain 1 of 2): as the sequence (P06756 31-992 limits assumed, chain 1 of 2) above
T2 sequence (P18564 22-707 limits assumed, chain 2 of 2): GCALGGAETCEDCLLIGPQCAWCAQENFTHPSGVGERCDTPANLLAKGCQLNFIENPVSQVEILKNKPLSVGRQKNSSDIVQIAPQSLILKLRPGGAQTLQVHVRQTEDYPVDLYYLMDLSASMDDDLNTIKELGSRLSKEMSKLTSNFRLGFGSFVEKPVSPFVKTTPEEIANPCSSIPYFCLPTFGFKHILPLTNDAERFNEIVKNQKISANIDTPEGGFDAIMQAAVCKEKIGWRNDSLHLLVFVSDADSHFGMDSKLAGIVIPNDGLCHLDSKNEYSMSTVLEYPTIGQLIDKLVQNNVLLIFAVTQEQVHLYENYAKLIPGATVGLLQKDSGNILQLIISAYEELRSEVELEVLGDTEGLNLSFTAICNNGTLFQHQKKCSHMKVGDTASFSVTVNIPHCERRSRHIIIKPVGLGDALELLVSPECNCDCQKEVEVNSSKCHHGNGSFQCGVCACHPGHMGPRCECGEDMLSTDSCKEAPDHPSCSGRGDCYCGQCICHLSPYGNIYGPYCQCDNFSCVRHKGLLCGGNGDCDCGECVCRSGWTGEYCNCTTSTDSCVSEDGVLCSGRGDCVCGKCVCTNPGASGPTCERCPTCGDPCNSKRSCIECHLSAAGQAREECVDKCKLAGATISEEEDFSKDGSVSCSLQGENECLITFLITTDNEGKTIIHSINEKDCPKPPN
T3 sequence (P06756 31-992 limits assumed, chain 1 of 2): as the sequence (P06756 31-992 limits assumed, chain 1 of 2) above
T3 sequence (P26012 43-684 limits assumed, chain 2 of 2): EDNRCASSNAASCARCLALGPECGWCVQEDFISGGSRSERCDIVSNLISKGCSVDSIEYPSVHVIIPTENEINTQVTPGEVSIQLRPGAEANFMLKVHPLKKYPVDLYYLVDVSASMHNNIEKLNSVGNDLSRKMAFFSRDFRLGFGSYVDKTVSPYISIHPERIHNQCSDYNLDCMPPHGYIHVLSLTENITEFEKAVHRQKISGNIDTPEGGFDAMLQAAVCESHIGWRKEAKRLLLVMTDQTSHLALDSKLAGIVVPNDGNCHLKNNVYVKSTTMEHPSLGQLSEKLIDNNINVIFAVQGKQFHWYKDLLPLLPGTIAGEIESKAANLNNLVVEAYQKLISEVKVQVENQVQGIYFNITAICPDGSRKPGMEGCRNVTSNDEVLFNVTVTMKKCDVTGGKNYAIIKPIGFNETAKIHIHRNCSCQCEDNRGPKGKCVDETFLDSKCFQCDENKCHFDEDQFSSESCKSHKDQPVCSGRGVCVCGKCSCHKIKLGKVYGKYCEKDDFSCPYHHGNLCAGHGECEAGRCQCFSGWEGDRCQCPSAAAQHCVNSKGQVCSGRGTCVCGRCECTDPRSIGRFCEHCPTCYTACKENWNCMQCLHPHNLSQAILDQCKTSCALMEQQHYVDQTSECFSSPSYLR

Turning to `CC(C)C[C@@H]1NC(=O)[C@H](CC(=O)O)NC(=O)CNC(=O)[C@H](CCCNC(=N)N)NC(=O)[C@H](Cc2ccccc2)NC(=O)[C@@H]2CCCN2C(=O)[C@@H]2CCCN2C(=O)[C@H](CC(C)C)NC(=O)[C@H](C)NC1=O` (cyclo(RGDLALPPF)), in series [1], the “log D (1-octanol / PBS pH 7.4)” value was −0.19 log units. On the same count and under the same terms, next, `CCCCCCOC(=O)N=C(NCCC[C@@H]1NC(=O)[C@@H](C(C)C)N(C)C(=O)[C@H](C)N(C)C(=O)[C@H](C)NC(=O)[C@H](CC(=O)OC)NC(=O)CNC1=O)NC(=O)OCCCCCC`: 4.86 log units; `CCCCCCOC(=O)N=C(NCCC[C@@H]1NC(=O)[C@H](C(C)C)N(C)C(=O)[C@@H](Cc2ccccc2)NC(=O)[C@H](CC(=O)O)NC(=O)CNC1=O)NC(=O)OCCCCCC`: 3.95 log units. `CC(C)[C@H]1C(=O)N[C@@H](CCCNC(=N)N)C(=O)NCC(=O)N[C@@H](CC(=O)O)C(=O)N[C@H](Cc2ccccc2)C(=O)N1C`: the “log D (1-octanol / PBS pH 7.4)” value in series [1] is recorded as <−1 log units. Turning to `CC(C)C[C@@H]1NC(=O)CNC(=O)[C@@H]2CCCN2C(=O)[C@@H]2CCCN2C(=O)[C@H](CC(C)C)NC(=O)[C@H](CC(=O)O)NC(=O)CNC(=O)[C@H](CCCNC(=N)N)NC1=O` (cyclo(RGDLPPGL)), the “log D (1-octanol / PBS pH 7.4)” value in series [1] was <−1 log units. Regarding `CCCCCCOC(=O)N=C(NCCC[C@@H]1NC(=O)[C@H](Cc2ccccc2)NC(=O)[C@@H]2CCCN2C(=O)[C@@H]2CCCN2C(=O)[C@H](CC(C)C)NC(=O)[C@H](C)NC(=O)[C@H](CC(C)C)NC(=O)[C@H](CC(=O)O)NC(=O)CNC1=O)NC(=O)OCCCCCC` (cyclo(ALPPF[Arg(ω,ω'-(C6H13OCO)2)]GDL)), the “log D (1-octanol / PBS pH 7.4)” value in series [1] is >4.5 log units. For `COC(=O)Nc1nc2cc(C(=O)c3ccccc3)ccc2[nH]1`, in series [1], the “log D (1-octanol / PBS pH 7.4)” value is listed as 3.04 log units. For `CC(C)[C@@H]1C(=O)N[C@@H](CCCNC(=N)N)C(=O)NCC(=O)N[C@@H](CC(=O)O)C(=O)N[C@@H](C)C(=O)N(C)[C@@H](C)C(=O)N1C`, the “log D (1-octanol / PBS pH 7.4)” value in series [1] is <−1 log units. With `CCCCCCOC(=O)N=C(NCCC[C@H]1NC(=O)[C@H](C(C)C)N(C)C(=O)[C@@H](C)N(C)C(=O)[C@@H](C)NC(=O)[C@@H](CC(=O)OC)NC(=O)CNC1=O)NC(=O)OCCCCCC` (cyclo(G[dD](OMe)[dA][dNMeA][NMeV][X1])), in series [1], the “log D (1-octanol / PBS pH 7.4)” value was >4.5 log units.

`CCCCCCOC(=O)N=C(NCCC[C@@H]1NC(=O)[C@H](CC(C)C)NC(=O)CNC(=O)[C@@H]2CCCN2C(=O)[C@@H]2CCCN2C(=O)[C@H](CC(C)C)NC(=O)[C@H](CC(=O)O)NC(=O)CNC1=O)NC(=O)OCCCCCC` (cyclo(LPPGL[Arg(ω,ω'-(C6H13OCO)2)]GD)): in series [1], the “log D (1-octanol / PBS pH 7.4)” value was >4.5 log units. Take `CCCCCCOC(=O)NC(=N)NCCC[C@@H]1NC(=O)[C@@H](C(C)C)N(C)C(=O)[C@H](C)N(C)C(=O)[C@H](C)NC(=O)[C@H](CC(=O)OC)NC(=O)CNC1=O`: in series [1], the “log D (1-octanol / PBS pH 7.4)” value was determined as 1.85 log units. For the molecule cyclo([dR]G[NMeD]A[NMeA]A) (NMe(3,5) scaffold cyclic hexapeptide) [peptide 17, c(rG*DA*AA)], the IC50 in series [2] turned out to be 2350 nM. As to RTDLDSLRT (Internal standard for αvβ6 and αvβ8) [linear peptide RTDLDSLRT], the IC50 in series [3] lay within 6 to 33 nM; in series [4], 8 to 100 nM. As for cyclo([dR]GDA[NMeA][NMeA]) (NMe(5,6) scaffold cyclic hexapeptide) [peptide 23, c(rGDA*A*A)], the IC50 in series [5] amounted to 130 nM; in series [2], 73 nM.

Regarding cyclo([dNMeR]GDA[NMeA]A) (NMe(1,5) scaffold cyclic hexapeptide) [peptide 5, c(*rGDA*AA)], the values for the concentration for half-maximal inhibition (IC50) in series [5], in series [6] and in series [2] were 25 nM, 170 nM and 13 nM, respectively. Regarding cyclo([dNMeR]GDA[NMeA]V) (NMe(1,5) scaffold cyclic hexapeptide) [peptide 32, c(*rGDA*AV)], the IC50 in series [5] turned out to be 3.8 nM; in series [2], 5.6 nM. Turning to cyclo([dNMeR]GDA[NMeA]F) (NMe(1,5) scaffold cyclic hexapeptide) [peptide 33, c(*rGDA*AF)], the IC50 in series [5] was found to be 25 nM; in series [2], 4.4 nM.

B1: peptide 12, c(*aRGDA*A) (peptide)
peptide: cyclo([dNMeA]RGDA[NMeA])
notes: NMe(1,6) scaffold cyclic hexapeptide; also called the drug
B1: the values for the IC50 in series [5], in series [6] and in series [2] were 770 nM, 1500 nM and 4.8 nM, respectively.
